From patent US20160158380A1 (INSERM INSTITUT NATIONAL DE LA SANTE ET DE LA RECHERCHE …, published 2016)

Columns and labels:
[1] = target: T1, murine CLDN1 (murine, UniProt O88551 1-211); experiment: flow cytometry on SW480 cells transiently transfected with murine CLDN1
T1 construct: whole, on cells; also called mCLDN1
T1 sequence (looked up): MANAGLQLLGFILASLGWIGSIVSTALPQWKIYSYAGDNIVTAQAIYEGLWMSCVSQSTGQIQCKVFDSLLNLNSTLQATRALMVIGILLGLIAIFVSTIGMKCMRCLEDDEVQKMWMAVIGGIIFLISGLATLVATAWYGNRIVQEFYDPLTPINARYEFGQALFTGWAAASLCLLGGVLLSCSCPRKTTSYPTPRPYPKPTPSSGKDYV
Protocol: (§1) Hybridomas or mAbs binding was determined with a FACScan fluorescence-activated cell sorter (Quanta apparatus, Beckman Coulter). Cells were seeded in 25 cm² flasks (2×10⁵ cells/flask). After a 48-hour rest, one million cells were pelleted, Washed with PBS-1% BSA and incubated with hybridomas or mAbs, on ice for 1 h. After washing, an appropriate anti-mouse FITC conjugated monoclonal antibody ((1:60 dilution; (Invitrogen) was added (on ice for 45 mn) to detect the primary antibodies. Direct incubation of cells with the secondary antibody was used for background measurements (negative control).
(§2) After transitory transfection on SW480 cells of human cDNA clone of CLDN8 (sc320974, Origene technologies, USA) and murine cDNA clone of CLDN1 (IRAVp968A105D, LifeScience), we analysed by FACs cross-reactivity of 6F6C3 mAb.

[2] = target: T2, CLDN7 (human, UniProt O95471 1-211); experiment: flow cytometry on parental SW480 cells, which express CLDN7
T2 construct: whole, on cells; Species is inferred from the human SW480 cell line
T2 sequence (looked up): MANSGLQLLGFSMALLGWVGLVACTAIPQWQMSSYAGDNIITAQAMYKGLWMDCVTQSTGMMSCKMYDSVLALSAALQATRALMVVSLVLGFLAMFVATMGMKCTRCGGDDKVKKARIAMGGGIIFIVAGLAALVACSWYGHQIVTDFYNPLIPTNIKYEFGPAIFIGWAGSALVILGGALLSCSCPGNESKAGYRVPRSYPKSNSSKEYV

[3] = target: T3, human CLDN8 (human, UniProt P56748 1-225); experiment: flow cytometry on SW480 cells transiently transfected with human CLDN8
T3 construct: whole, on cells
T3 sequence (looked up): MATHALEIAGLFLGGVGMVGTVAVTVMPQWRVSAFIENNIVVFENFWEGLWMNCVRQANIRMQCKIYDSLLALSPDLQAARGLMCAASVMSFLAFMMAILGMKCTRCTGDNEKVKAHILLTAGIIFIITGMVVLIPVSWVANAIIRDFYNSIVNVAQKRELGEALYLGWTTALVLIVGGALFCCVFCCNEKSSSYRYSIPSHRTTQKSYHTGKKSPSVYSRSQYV
Protocol: as §1, §2

Measured: binding result

B1: 6F6C3 mAb (antibody, V domains shown)
VH: QIQLVQSGPELKKPGETVRISCKASGYTFTTSGMQWLQKMPGKGLKWIGWINTHFGEPKYAEDFKGRFAFSLETSASTAYLQISNLKNEDTATYFCAGAGYYGSRYFDVWGAGTTVTVSS
VL: DIVMTQSQKFMSTSVGDRVSITCKASQNVGTAVAWYQQKPGQSPKLLIYSASNRYTGVPDRFTGSGSGTDFTLTISNMQSEDLADYFCQQYSSYPLTFGGGTKLEIK
notes: Mouse hybridoma monoclonal antibody, IgG3 heavy chain and kappa light chain; also called mAb6F6C3; MAb 6F6C3
no binding (tested: 10 µg/mL): all assays above
